How the values were obtained:
[1] = molecular target: human LGR8, recombinant, expressed in 293T cells (human) (UniProt Q8WXD0); assay: competition with 5 nM biotinylated ovine INSL3 for 293T cells expressing LGR8, 4 C 24 h, 125I-streptavidin detection
[2] = molecular target: human LGR7, long form (LGR7(1), 757 amino acids), recombinant, expressed in 293T cells (human), Q9HBX9; assay: cell-based or functional assay
Sequence of human LGR7, long form (LGR7(1), 757 amino acids), recombinant, expressed in 293T cells (human), Q9HBX9 (Q9HBX9 whole entry): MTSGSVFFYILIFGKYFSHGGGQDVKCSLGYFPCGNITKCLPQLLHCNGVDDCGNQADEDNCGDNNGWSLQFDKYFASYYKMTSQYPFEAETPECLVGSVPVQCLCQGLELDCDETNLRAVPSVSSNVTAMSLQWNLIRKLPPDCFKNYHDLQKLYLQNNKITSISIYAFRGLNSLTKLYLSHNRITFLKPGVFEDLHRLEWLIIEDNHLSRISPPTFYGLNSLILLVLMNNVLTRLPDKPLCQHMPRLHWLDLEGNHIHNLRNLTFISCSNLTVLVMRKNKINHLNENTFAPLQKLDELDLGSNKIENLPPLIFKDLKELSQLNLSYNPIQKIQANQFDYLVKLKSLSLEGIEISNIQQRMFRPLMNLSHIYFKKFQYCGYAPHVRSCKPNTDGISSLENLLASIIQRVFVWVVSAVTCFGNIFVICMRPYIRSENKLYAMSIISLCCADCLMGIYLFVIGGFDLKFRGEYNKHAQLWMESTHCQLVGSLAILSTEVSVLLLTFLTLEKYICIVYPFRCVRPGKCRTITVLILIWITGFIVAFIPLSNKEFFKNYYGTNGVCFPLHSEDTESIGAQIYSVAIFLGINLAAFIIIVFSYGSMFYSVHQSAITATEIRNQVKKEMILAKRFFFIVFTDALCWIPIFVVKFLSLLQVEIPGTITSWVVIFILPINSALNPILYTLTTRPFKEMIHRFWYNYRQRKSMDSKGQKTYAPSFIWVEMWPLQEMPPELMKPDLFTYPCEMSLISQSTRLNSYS

Sequence of UniProt Q8WXD0 (Q8WXD0 whole entry): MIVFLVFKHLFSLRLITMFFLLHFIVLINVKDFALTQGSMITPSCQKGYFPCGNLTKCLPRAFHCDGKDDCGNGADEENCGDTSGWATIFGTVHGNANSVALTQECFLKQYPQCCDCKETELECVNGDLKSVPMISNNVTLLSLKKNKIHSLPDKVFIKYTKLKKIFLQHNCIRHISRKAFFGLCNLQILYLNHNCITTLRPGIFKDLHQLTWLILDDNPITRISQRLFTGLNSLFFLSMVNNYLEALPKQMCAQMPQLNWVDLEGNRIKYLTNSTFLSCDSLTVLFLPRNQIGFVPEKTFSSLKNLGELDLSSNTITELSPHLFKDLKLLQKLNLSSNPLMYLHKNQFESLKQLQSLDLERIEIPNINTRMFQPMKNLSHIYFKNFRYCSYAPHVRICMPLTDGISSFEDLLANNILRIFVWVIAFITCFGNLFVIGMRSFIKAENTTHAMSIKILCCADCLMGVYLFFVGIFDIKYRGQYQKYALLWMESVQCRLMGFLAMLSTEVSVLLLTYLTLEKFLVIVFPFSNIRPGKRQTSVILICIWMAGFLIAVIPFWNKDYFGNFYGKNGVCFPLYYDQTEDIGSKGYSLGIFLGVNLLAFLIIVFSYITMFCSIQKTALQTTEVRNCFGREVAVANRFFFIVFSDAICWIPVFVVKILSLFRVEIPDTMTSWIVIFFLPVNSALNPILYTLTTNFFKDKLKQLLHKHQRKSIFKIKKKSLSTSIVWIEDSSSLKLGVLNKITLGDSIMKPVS

| ED50 [1] [nM] | cAMP production by 293T cells expressing human LGR7 [2] [nM] | Molecule |
| --- | --- | --- |
| 12 | – | rat INSL3, chemically synthesized (from UniProt Q9WUK0 103-128; Q9WUK0 103-128) (ligand) |
| – | 0.1 | porcine relaxin, P01348 161-182; P01348 25-56 (ligand) chain 1: RMTLSEKCCQVGCIRKDIARLC chain 2: QSTNDFIKACGRELVRLWVEICGSVSWGRTAL |
